# According to the DeepSol protein solubility set:
# Assay: soluble on expression in E. coli; label from the status in PepcDB or PDB records
row,Sequence,soluble on expression in E. coli
1,TEFGSELKSFPEVVGKTVDQAREYFTLHYPQYNVYFLPEGSPVTRDLRYNRVRVFYNPGTNVVNHVPHVG,soluble
2,MASKAVILAGGLGTRLSEETIVKPKPMVEIGGKPILWHIMKMYSVHGIKDFIICCGYKGYVIKEYFANYFLHMSDVTFHMAENRMEVHHKRVEPWNVTLVDTGDSSMTGGRLKRVAEYVKDDEAFLFTYGDGVADLDIKATIDFHKAHGKKATLTATFPPGRFGALDIQAGQVRSFQEKPKGDGAMINGGFFVLNPSVIDLIDNDATTWEQEPLMTLAQQGELMAFEHPGFWQPMDTLRDKVYLEGLWEKGKAPWKTWE,soluble
3,MSFITAFRERVFIASGDLIRTFRISEETELKNFISWSKINPERIQKPSFDIEKELKAVEKRVILCLAHSNVLTTHGRRLVAVGTNEKQIHVFEYFVNDKGDIVTAEHIVTSVVPKAPTAIVFDKEDAYVVVGDRAGDVHRFSVLNGSAIEMAGAISMILDVAFSPDGKRLLMADRDEKVRALRYPATSVIDSFFLGHTEYVKTLAVQDNDSLWSSGGDKNLYNWSIAKCSAPRRTLDLSQFDAPIRKISINLQHKKIAVIFEKIETVVIVDLNQESLQTTSVSIVGESQCLDIASTKDYFAVLGRSTVHLIDLNNMEQKFVPIDEELTITLTSTNDAIDNLFKNVTHNNQQEYEKRKADKFEQIEKKKRRLNEDINGDDGEGPGPSNS,not soluble
4,MKILVALAVFFLVSTQLFAEEIGANDDLNYWSDWYDSDQIKEELPEPFEHLLQRIARRPKPQQFFGLMGKRDADSSIEKQVALLKALYGHGQISHKRHKTDSFVGLMGKRALNSVAYERSAMQNYERRRLEHHHHHH,not soluble
5,MSLERLNKPSAPRYSRLREWVVGCAPNDLVVVKFGGSVLNGSPGFLAAGRLVLGLLESGLEPVVVVSAVKGVTDALLSSFERRDPGVGGAVGKTYLSIARELGLPPESVRDVSLASAEVSKLLWAAEVLGQWTPRVRDLVVSYGERLSAALMAGLLRRLGVEARWLGGGEAGIVTDGEFGDATPLYGYTEGVIRERLEPMLEEGVVPVVAGFTGATREGDTTLLGRGGSDLTATLLASALGAGRVVLYTDVPGILSGDPRVVGEPRRVGYMSYEEAWEVARLGLRKFHPRTFEPLIAGGLGVEVVVSDLRGRSTRIGPGRGGPPLKVVSLSRGVARLVVRGPSMAGKRGFLSRLAGLLAGRGVNILAIRQPPSETAIELVVDERDLPAAVEELGARSGAAGVRLEVERGFDVVSIVGWGAVEALPEALSAAEKTGGRLLSTGELSPSISILARGRTSPELARLLHRRVVESWVTGEGHHHHHH,not soluble
6,MSLTKSSKYDTAFLKENMMGPNAIKIIEELLESLKLEEGMRVLDLGCGKGLTSIFLAKEYGVTVFATDLWISATENYERIKSMGLEDKIIPIHAEAHDLPFAQEYFDVAISVDAYHYFGIEEDYLTKHLAPLVKKGGKIAVAVPGLKKEFENGVPEKLQPYWFEDMTLTLHSLDWWYNLWKKADSVSIEECKELKCLEETWQDWLSCDNDYARRDIGMMEAEGGNYFNLVSIIATRLEGHHHHHH,soluble
7,MTVGGMQPVSIMGKHLNNFERLSILEDYLSGSDSKVAIEQKYGLSHGLIRSWLSKFGLEDKVHPVPMKVSQSPQSELPLNEKEELEQLRKENRVLKSRLKREELGHQAYKLLVELAEETYGIQIRKNSEAK,not soluble
8,MSEKTNPNLTLHDVTDKLEGDDEKYATALKTCGEVFAEVEAIFNDENYLSHAGWFKDESNNEGDVVYAKDTPHGRMVTISTELPMPVEDVMKETWNGMEALPEWNQNINFAARIAAPTSNFDIVTYGNNDVLVVSGREFVSARIWRKVGDGFILASRSVTVPSFKSKHKGKVRAHLHLAGARFRPNPENPETTLTDVVMLADLKGYLPKMIVNQVIGRIMIMDTVTNRRHFQNLKAKRTNN,not soluble
9,MSLSSFEGKVAVITGAGSGIGRALALNLSEKRAKLALSDVDTDGLAKTVRLAQALGAQVKSDRLDVAEREAVLAHADAVVAHFGTVHQVYNNAGIAYNGNVDKSEFKDIERIIDVDFWGVVNGTKAFLPHVIASGDGHIVNISSLFGLIAVPGQSAYNAAKFAVRGFTEALRQEMLVARHPVKVTCVHPGGIKTAVARNATVADGEDQQTFAEFFDRRLALHSPEMAAKTIVNGVAKGQARVVVGLEAKAVDVLARIMGSSYQREGHHHHHH,not soluble
10,SRLMNEIRETRGLAYSVYSTFAPYQEKGPFEIGLQTKKEQAEQALQLTQKTLRDFVEQGPTEEELQAARQNIVGGFPLRIDSNQKILGYLGVIGFYDLPLTYLEDYVKAVEKVTVAQIRDAFKRRIDPAGMVTVVVGA,not soluble
11,SLSMKLLIADDEDTIRNGIAKYIKLHTDRFSQIYLAENGQQALDIILQYQPDMMLLDVQMPLKTGLEVLQEAQKLSLVPKTIILSGYDDFEYARKALRYGAKDYLLKPCRSSEILEAINKLVQEQLGTKEG,not soluble
12,MPKKILFTGGGTVGHVTLNLILIPKFIKDGWEVHYIGDKNGIEHTEIEKSGLDVTFHAIATGKLRRYFSWQNLADVFKVALGLLQSLFIVAKLRPQALFSKGGFVSVPPVVAAKLLGKPVFIHESDRSMGLANKIAYKFATTMYTTFEQEDQLSKVKHLGAVTKVFKDANQMPESTQLEAVKEYFSRDLKTLLFIGGSAGAHVFN,not soluble
13,MSLSITRKDFDHINLEYSGLEKVNKAVAAGNYDDAAKALLAYYREKSKAREPDFSNAEKPADIRQPIDKVTREMADKALVHQFQPHKGYGYFDYGKDINWQMWPVKDNEVRWQLHRVKWWQAMALVYHATGDEKYAREWVYQYSDWARKNPLGLSQDNDKFVWRPLEVSDRVQSLPPTFSLFVNSPAFTPAFLMEFLNSYHQQADYLSTHYAEQGNHRLFEAQRNLFAGVSFPEFKDSPRWRQTGISVLNTEIKKQVYADGMQFELSPIYHVAAIDIFLKAYGSAKRVNLEKEFPQSYVQTVENMIMALISISLPDYNTPMFGDSWITDKNFRMAQFASWARVFPANQAIKYFATDGKQGKAPNFLSKALSNAGFYTFRSGWDKNATVMVLKASPPGEFHAQPDNGTFELFIKGRNFTPDAGVFVYSGDEAIMKLRNWYRQTRIHSTLTLDNQNMVITKARQNKWETGNNLDVLTYTNPSYPNLDHQRSVLFINKKYFLVIDRAIGEATGNLGVHWQLKEDSNPVFDKTKNRVYTTYRDGNNLMIQSLNADRTSLNEEEGKVSYVYNKELKRPAFVFEKPKKNAGTQNFVSIVYPYDGQKAPEISIRENKGNDFEKGKLNLTLTINGKQQLVLVPEGHHHHHH,soluble
14,MKEHIAAVHKQTIAQAAERLFLERGFDGTSISDICAASGYSRRTVYRYFDTKEEILYYIVANGLEQLRDRLTDIVQAEQPFLAKYEHICKAMRAYYEHCPISARAVHQFQPKALETVTPTMETIFSLGTAINDALARWIEQGIAEGVVRETADVMMTVYVFSAQLHALFDLVETKGAFLLPTLGKTKEQFFAYGQKMIFNSLAKEPLL,soluble
15,MATSGTYVTEVPLKGSAKNHYKRWKSENQLFPDAIGHHIQGVTVHEGDWDSHGAIKSWNYTCDGKQEVFKEKRELDDQKMAVTFRGLDGHVMEQLKVYDVIFQFVPKSQEGCVCKVTMFWEKRYEDSPEPIKYMKFVTSLAADMDDHILKNQSKA,soluble
16,MGSDKIHHHHHHMGKLSLAAKITHVPSMYLSELPGRHHGCRAEAIRGHQAIGERCRALGVDTIVVADTHWLVNAGYHVNCNGHFAGVYTSNELPHFIRDMRYEYPGNPALGHLIAASANERGIGTRAHEIDSLELEYGTLVPMRYMNADQRFKVVSIAGWCMWHALDESRRFGEALRHAIDASDANVAFLASGSLSHRFNDNGSPEEAIHMISREFYRQVDLRVVELWKQGDFATFCKMLPEYNAHCHGEGGMHDTAMLLGLLGWDRYDKPVEIVTDYFASSGTGQINAIFPLP,not soluble
17,MAHHHHHHMRGTTKPMLFLCSTAVRLNFFPLGLSAGPLNSHILLPRNNFDGRTTHGMKKIQGQSKDPQMVMSRDELKLRCEYCRFEWIHDTLCVRCPAQPSHDQREMWLHSTWMWGKQQPYKYYKYMPAVRNPRTGMPMAREDARGMNNERRGQGLTTRTLNLEKERRGISRDVSRIGQYNTRWKTRFPFPT,not soluble
18,MRATAIKIFSLSSALALLLHGCLSINLKQMLPEIRTYDLNASSFEITQCAKPLTEVRLISILSADLFNTKEIVFKAKDGQITHGKHQKWIDLPRNMLKTMFMQEAQKACLGVALPPYGAGAPTYAVRFTILSFSLLEKENSTYRAEFALGYDISVKGDSHSGVIIKHENISSLENKTTKTSKNGNQDFQESAIQSLQHVSVQAIQEAVSLIKKAIEAQSVSPLKK,not soluble
19,RKVAAKMMQHQLEKHLKALNFDNPLFWTSLPTAADVCNAMNKRGLIYYCGDDFGALAGVDHQTVMEHERTLVDSADFILAASDKLAARFPDNKTTTLPHGVDFSLFSTPAEKASDLPNNGRKILGFYGSLSDWLDYRLIDQVAQHAPDWDLVFIGPNEFAHNPLPQRDNVHYLGPRAHHLLPSYSQHWDASWLPFVDNAQIKACNPLKLLE,not soluble
20,MSNIFLSLEPKILWSHFYRLTQIPRPSGHEEAVRTYVADVAKRCGLEWLVDEAGNIIVRKPASAGMERRRGVILQAHLDMVPQKNAGTAHDFTKDPIDAVIDGEWVHARGTTLGADNGIGVAAALAVLESDDLRHGPLEALFTVNEEAGMTGALGLKPGVLRGDILLNLDSEDEGELFIGCAGGLDGTMRFDYSCEPLPPGYSGIEIRVSGLRGGHSGMDIDLGRGNANKIMNRLLQMGREHHGLLLASIDGGSLRNAIPRESVALVAVPSAQKVAFLDELHSLASAIGLELNGVDPELRVEAADAALPVGMIDDTVAQRLFDAVAACPNGVHRMSEAMAGLVETSNNLARVHSDGRAVSVECLLRSASVEGMRELADAVAGIAERAGTVAAFENGYPGWKPNPASPILKCMVKVYRDRFGKTPEIRAVHAGLECGIIGANNPQLDMISFGPTIRHPHSPDEKVECSSVLKFWELLVATLEEVPEPLEHHHHHH,not soluble
21,MAHHHHHHMVSNVADVRQINLTDSSNFLLMACDGLWDVVENEEATQFVRDFLSYTPDVGSSPEATKRALNNCCQKLAEFAVDRGSTDNVSVMLLFFHDVADVVAGFDKPVGAVVSPPASQVLSPRLTGPSRGIPFGSSMLDGGLHTSSGTSGTRRPSFGSVSSLHGRGRSIW,not soluble
22,MPIATVCTWPAETEGGSTVVAADHASNYARKLGIQRDQLIQEWGWDEDTDDDIRAAIEEACGGELLDEDTDEVIDVVLLWWRDGDGDLVDTLMDAIGPLAEDGVIWVVTPKTGQPGHVLPAEIAEAAPTAGLMPTSSVNLGNWSASRLVQPKSRAGKR,soluble
23,MAHHHHHHMVVSLIGPLDSPYVQRTLLVAAYAGIQLKLVPIQIGRENETEEYRLNCHPMQRVPVMKTDEGYLFESNAMIRYLARTEVMLVSVSAGIDSAGANNEKIPHPQYPIPYAMYGHSLLESTQVDSWLDFAITRIDFYTRQFFAYEHKTGPKPAADMKTLLCKSLDGLERRVAYLKEACRALVQQSGSLTSRSVMTDEELVWNEEDYMASRATRDSRLSSVYNVAGSIRQRHMEKERQEREKQLMLIKKTTDDALGKEEGADDPHHPSRRPSVSRDSMAISATPRASVLMSARSTMGSAAPGVQRHDLLFLVGGSLTAADLVMAMSLHGVLCCQELKPVLTSKYPNLFKYYKSVLMLPVAAEVRKAIRLSIIKE,soluble
